Reference: publication PMC8519567
Like-named read-outs stand apart in the source and are kept apart here.

Assays:
[1] = tested on: SMARCAD1 (dephosphorylated with CIP) (Homo sapiens); assay: FP
[2] = molecular target: histones: H3-H4 (Alexa Fluor 488–H4) and H2A-H2B (Atto647N H2B) mixed at 10 nM (human); assay: FRET or BRET
[3] = molecular target: histones: H3-H4 (Alexa Fluor 488–H4) and H2A-H2B (Atto647N H2B) mixed at 10 nM (human); assay: FRET or BRET; remark: listed apart in the source
[4] = molecular target: 7 N11 nucleosome labeled at H4 E63C with Alexa Fluor 488 (human) (UniProt P04908); assay: fluorescence polarisation
[5] = molecular target: refolded histones H3-H4 labeled with Alexa Fluor 488 on H4 (human) (UniProt P68431); assay: fluorescence polarisation

TLH4 nucleosome (tailless H4) was tested, and the Kd ([1]; H4 N-terminal tail deleted) was 110 nM.

In the case of 147-bp 601 DNA, the Kd [1] is reported as 80 nM.

For TLH3 nucleosome (tailless H3), the Kd ([1]; H3 N-terminal tail deleted) was 330 nM.

With “7N11 nucleosome (165 bp), Alexa Fluor 488 at H4 E63C” the Kd [1] was 90 nM.

“dephosphorylated SMARCAD1 (from UniProt Q9H4L7 1-1026) (enzyme)” was tested, and the Kd [2] was 2.1 nM, the Kd [3] was 1.3 nM and the Kd [4] was 90 nM. For the same substance, the Kd [5] was 4 nM.
